From patent US20110104145A1, “METHOD FOR THE TREATMENT OR PROPHYLAXIS OF CHRONIC INFLAMMATORY DISEASES” (priority 2008, published 2011)

Target: CD89 (Fc receptor for IgA) on polymorphonuclear cells (human) (UniProt P24071)
Assay: cell-based or functional assay

Sequence of CD89 (Fc receptor for IgA) on polymorphonuclear cells (human) (P24071 22-287): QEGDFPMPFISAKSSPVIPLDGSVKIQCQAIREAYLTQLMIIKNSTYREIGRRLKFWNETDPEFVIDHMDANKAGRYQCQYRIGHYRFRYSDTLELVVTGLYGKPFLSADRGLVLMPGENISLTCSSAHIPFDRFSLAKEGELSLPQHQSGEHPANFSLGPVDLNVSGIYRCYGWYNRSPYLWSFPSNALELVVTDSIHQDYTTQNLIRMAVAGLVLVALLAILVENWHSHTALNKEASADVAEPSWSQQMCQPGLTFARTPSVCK

| percentage blocking (polymorphonuclear cells bound to IgA-coated beads, 2-D migration assay) | Substance |
| --- | --- |
| 30% | anti-CD89 monoclonal antibody MY43 |
| 75 to 90% | anti-CD89 monoclonal antibody MIP8a |
